Experiment [1] has as its target T1, Full-length human HER3 extracellular domain (ECD) (human, UniProt P21860 20-643).
T1 construct: also called human HER3 ECD; HER-3 ECD full length
The experiment can be described thus: affinity summary table, method not given.

For experiment [2], the target named is T2, Human HER3 ECD domain II (human, UniProt P21860 184-329).
T2 construct: also called D2; Domain 2
The experiment can be described thus: affinity summary table, method not given.

The target in experiment [3] is T1, Full-length human HER3 extracellular …. The experiment can be described thus: BIACORE 2000 SPR, mAb captured, HER3 protein as analyte, 25 C. Here is the method:
(§1) Mouse monoclonal antibodies were analysed using rabbit anti-mouse (RAM) IgG (GE Healthcare BR-1008-38) covalently coupled to a BIACORE™ CM5 chip (GE HEalthcare BR-1000-14) by primary amine chemistry (NHS/EDC activated) (GE Healthcare amine coupling kit BR-1000-50). Chimeric and humanized competitor monoclonal antibodies were analyzed using anti-human, Fc specific monoclonal (GE Healthcare BR-1008-39) similarly coupled. Each chip was also prepared with a reference surface to which no capture reagent antibody is coupled. Sensorgrams for cycles run with differing analyte concentrations are acquired for kinetic analysis. A cycle consists of capturing the monoclonal on the surface, a short stabilization period with flowing run buffer followed by binding of a defined concentration of analyte (ECD or sub-domain protein). Injection of analyte for surface binding (3-4 minutes) yields the association part of curve. This is followed by buffer only flow (3-4 minutes) which allows recording of dissociation data.
(§2) The general method for affinity analysis is as follows. First, chips were prepared and tested for reasonance units (RU) captured for several monoclonal antibody concentrations. Kinetic cycles were then run in which monoclonal antibody was captured to a level of approximately 100RU, analyte protein was allowed to bind then dissociate and the surface was regenerated to remove all but covalently coupled protein. RAM chips were regenerated with capture kit supplied 100 mM glycine pH1.7 and anti-human chips with capture kit supplied 3M MgCl₂. […] Several buffer cycles were run prior to analyte protein to ensure cycle consistency and in some experiments a buffer cycle is used a “double reference[.]” Analytes used were human full length HER3 extra cellular domain (ECD), separate sub-domains of the extracellular portion of human HER3 (D1, D2, D3, D4), or combination HER3 domain proteins (D1-2 and D2-3).
A general note: Surface plasmon resonance follows binding to a sensor surface in real time, without labels.

Experiment [4] addresses T2, Human HER3 ECD domain II. Described as above. Here is the method:
as §1, §2

In experiment [5] the target is T1, Full-length human HER3 extracellular …. Kind of experiment: BIACORE 3000 SPR, mAb captured by anti-human Fc, ECD as analyte, 25 C. How it is done:
The binding kinetics of these antibodies for was assessed using a BIACORE™ 3000. Antibodies were captured on a CM5 biosensor chip to which an immobilized anti-human IgG (Fc specific) BIACORE™ (GE Healthcare cat# BR-1008-39) monoclonal antibody had been conjugated using supplied coupling buffer (9000 RU). Full-length human HER3 ECD concentrations were injected for 120s at a flow rate of 30 ul/min. Biosensor chips were regenerated as described in Example 1. Kinetics were determined by global fitting of data to the 1:1 Langmuir model using BIACORE™ Evaluation software. Analytical runs were carried out at 25° C. using FIBS-EP as the running buffer.
Buffer cycle and double referencing were performed as described in Example 1; and 5) Regenerate biosensor chips with BIACORE™ optimized buffers.

Experiment [6] concerns the target T3, Human HER3 receptor (human, UniProt P21860 20-1342). The experiment can be described thus: cell-based or functional assay.
The target in experiment [7] is T3, Human HER3 receptor. The experiment can be described thus: cell-based or functional assay. This is another data set of the same source.
The target in experiment [8] is T3, Human HER3 receptor. Kind of experiment: cell-based or functional assay. The source holds these as a separate data set.
The target of experiment [9] is T2, Human HER3 ECD domain II. The experiment can be described thus: DELFIA, plate coated with HER3 Domain II 1ug/ml. How it is done: Dissociation Enhanced Lanthanide Fluorescence Immunoassay (DELFIA) for detection of the anti-HER3 antibodies to HER3 extracellular domain (ECD) was used. The DELFIA procedures were as follows: white Maxisorp 96-well plates (Nunc #437796) were coated with 100 ul/well of 1 ug/ml HER-3 ECD full length or HER3Domain I, II, III and IV in 0.1M carbonate buffer pH 9.5 overnight at 4° C. These plates were blocked with casein in TBS (Thermo Scientific #37532 lot#JD121074). The neat hybridoma supernatant, or the purified anti-HER3 antibodies diluted in Perkin Elmer #4002-0010 Assay Buffer from 10 ug/ml (or 100 ug/ml) to 0.01 ug/ml, or the PK serum samples with a minimum of 3 dilutions (100 ul/well) were added to the plate. These samples were incubated for 2 hours at room temperature while on a plate shaker or overnight at 4° C. […] The plate was washed 4 times with tris-buffer plus 0.05% tween-20 (Perkin Elmer #4010-0010) on a BIOTEK™ plate washer following each antibody incubation step. 100 ul/well of DELFIA enhancement solution (Perkin Elmer 1244-105) was added for 5 minutes at room temperature. […] Antibody binding was recorded as europium counts per well.

Experiment [10] addresses T1, Full-length human HER3 extracellular …. Kind of experiment: BIACORE SPR, mAb captured on protein A, ECD as analyte, 25 C. Here is the method: (§3) Protein A was immobilised on a CM5 chip by primary amine coupling to a level of ˜1300 resonance units (RU′s), humanized antibodies were then captured on this chip, All antibodies were captured to a similar level (100-200 RU's). […] Alternatively, the full-length, rat HER3 ECD or the full-length cynomolgus monkey ECD were passed over the chip at 10 nM, 5 nM, 2.5 nM, 1:25nM, 0.625 nM and 0.3125nM. An injection of buffer alone was used to double reference the binding curves as indicated in Example 1. Regeneration of this surface was achieved using 10 mM Glycine buffer pH 1.5. The binding data was fitted to the 1:1 model using BIACORE™ Evaluation software. Runs were carried out at 25° C. on a BIACORE™ T3000 using HBS-EP as running buffer.

Experiment [11] has the same target. The experiment is described as above. How it is done: as §3
The source holds these as a separate data set.

In experiment [12] the target is T4, Full-length rat HER3 extracellular domain (ECD) (rat, UniProt Q62799 20-643).
T4 construct: extracellular domain; also called Rat HER3 ECD
T4 sequence (Q62799 20-643): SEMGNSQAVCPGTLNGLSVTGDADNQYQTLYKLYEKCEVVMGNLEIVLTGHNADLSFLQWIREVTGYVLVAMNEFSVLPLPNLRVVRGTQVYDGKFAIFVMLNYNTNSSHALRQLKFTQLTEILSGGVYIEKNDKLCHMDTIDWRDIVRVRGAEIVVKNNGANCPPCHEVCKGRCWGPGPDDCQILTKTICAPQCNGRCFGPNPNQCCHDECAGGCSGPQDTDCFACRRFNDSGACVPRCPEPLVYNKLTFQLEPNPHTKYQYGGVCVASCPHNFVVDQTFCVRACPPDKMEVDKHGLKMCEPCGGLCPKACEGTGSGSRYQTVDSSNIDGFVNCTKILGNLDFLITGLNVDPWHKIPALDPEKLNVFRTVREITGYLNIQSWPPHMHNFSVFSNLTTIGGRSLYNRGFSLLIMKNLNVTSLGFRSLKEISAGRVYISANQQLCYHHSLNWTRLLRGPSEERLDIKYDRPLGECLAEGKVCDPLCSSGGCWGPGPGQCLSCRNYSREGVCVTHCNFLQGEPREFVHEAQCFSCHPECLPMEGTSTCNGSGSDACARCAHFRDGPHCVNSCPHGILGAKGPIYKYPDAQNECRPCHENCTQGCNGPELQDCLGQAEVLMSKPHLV
The experiment is described as above. How it is done:
as §3

The target in experiment [13] is T5, Full-length cynomolgus monkey HER3 extracellular domain (ECD) (cynomolgus monkey, UniProt G7PIG5 20-643).
T5 construct: extracellular domain; also called Cynomolgus monkey HER3 ECD
T5 sequence (G7PIG5 entry or part of it): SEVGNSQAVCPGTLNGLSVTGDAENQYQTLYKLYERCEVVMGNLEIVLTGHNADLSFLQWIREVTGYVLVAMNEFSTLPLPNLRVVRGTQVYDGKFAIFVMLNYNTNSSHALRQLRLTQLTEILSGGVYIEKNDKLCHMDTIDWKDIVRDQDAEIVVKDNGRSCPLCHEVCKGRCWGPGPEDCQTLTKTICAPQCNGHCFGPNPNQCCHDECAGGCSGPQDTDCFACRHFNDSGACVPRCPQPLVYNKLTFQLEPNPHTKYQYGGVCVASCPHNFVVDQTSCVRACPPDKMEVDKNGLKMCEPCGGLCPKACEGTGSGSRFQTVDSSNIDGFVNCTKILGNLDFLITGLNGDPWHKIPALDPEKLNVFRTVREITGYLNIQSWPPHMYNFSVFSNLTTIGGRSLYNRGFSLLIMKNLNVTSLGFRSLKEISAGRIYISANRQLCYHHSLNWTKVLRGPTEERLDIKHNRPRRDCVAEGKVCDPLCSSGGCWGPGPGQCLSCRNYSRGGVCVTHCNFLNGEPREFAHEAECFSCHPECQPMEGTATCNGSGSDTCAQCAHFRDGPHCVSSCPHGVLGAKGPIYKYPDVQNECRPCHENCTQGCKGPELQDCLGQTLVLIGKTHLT
The experiment is described as above. Here is the method: as §3

T1 sequence (P21860 20-643): as the sequence (G7PIG5 entry or part of it) above, with K145R, Q151R, L166P, P180S, Y388H counted along it
T3 sequence (P21860 20-1342 limits assumed): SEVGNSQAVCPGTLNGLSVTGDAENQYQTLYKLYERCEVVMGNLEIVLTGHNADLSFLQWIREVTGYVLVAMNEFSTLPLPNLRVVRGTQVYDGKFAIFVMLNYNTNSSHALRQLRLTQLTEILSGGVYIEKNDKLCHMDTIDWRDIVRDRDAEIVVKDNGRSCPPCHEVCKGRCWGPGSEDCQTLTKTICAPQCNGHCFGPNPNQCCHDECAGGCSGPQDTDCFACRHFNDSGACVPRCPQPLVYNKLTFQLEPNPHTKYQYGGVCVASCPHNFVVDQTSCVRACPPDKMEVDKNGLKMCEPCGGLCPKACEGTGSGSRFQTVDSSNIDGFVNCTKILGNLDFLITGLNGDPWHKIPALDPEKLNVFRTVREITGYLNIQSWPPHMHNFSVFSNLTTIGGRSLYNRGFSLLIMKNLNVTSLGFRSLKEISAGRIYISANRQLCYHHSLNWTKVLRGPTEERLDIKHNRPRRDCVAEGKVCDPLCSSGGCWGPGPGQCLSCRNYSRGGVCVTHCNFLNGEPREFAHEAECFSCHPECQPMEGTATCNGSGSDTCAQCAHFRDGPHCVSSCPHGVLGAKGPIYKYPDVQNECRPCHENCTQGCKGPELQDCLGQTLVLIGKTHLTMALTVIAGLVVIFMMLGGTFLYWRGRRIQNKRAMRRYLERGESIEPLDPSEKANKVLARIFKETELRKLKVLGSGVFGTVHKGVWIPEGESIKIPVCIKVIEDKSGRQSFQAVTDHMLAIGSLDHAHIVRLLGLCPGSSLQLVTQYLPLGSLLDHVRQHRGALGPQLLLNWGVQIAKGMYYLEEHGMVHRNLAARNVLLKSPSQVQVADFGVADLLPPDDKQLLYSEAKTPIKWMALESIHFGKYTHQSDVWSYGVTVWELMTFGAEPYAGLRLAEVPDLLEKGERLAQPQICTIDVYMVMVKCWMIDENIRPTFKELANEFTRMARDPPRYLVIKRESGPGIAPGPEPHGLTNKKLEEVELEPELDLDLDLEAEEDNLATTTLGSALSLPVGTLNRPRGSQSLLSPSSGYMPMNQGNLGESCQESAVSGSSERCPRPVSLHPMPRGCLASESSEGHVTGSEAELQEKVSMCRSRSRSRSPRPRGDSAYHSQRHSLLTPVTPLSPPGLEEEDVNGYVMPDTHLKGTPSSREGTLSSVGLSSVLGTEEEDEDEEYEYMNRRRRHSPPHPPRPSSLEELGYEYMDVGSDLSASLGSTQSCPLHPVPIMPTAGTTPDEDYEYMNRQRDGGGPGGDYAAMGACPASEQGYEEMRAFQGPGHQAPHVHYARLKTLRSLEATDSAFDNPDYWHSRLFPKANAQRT
T2 sequence (P21860 184-329): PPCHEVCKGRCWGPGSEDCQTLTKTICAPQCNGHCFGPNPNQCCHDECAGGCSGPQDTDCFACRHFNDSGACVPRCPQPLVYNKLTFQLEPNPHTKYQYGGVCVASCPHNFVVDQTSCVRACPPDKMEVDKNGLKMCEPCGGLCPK

B1: Chimeric 15D5 antibody (antibody, human IgG1, V domains shown)
VH: EFQLQQSGPELVKPGASVKISCKASGYSFTDYNMNWVKQNNGKSLEWIGGINPNYGTTVYNQKFKGKATLTVDQSSSTAYMQLVSLTSEDSAVYYCARMTTIVPFDYWGQGTTLTVSS
VL: DIQMTQTTFSLSASLGDRVTISCRASQDISNYLNWYQQKPDGTVKLLIYYTSTLHSGVPSRFSGSGSGTDYFLTIRNLEEEDIATYFCQQGYTLPWTFGGGTKLDIK
notes: To be rechecked; also called Ch15D5; ch15D5
The term Kd denotes a measure of binding affinity in units of concentration. Usually kon stands for the second-order rate constant of association. One may read the koff as the first-order rate constant of dissociation. On to B1, for which the dissociation constant (Kd) in [1] was ~1 nM; in experiment [2], 0.02 nM; in experiment [3], 0.87 nM; in experiment [4], 0.02 nM; in experiment [5], 3.19 nM. Also, the results for the kon in [3], in experiment [4] and in experiment [5] were 67900 M⁻¹ s⁻¹, 3.82e+06 M⁻¹ s⁻¹ and 44000 M⁻¹ s⁻¹, respectively. For the same molecule, the koff in experiment [5] is 0.00014 s⁻¹.

B2: Humanized 1D9 …B™ antibody (antibody, human IgG1, kappa)
heavy: QVQLVQSGAEVKKPGASVKVSCKASGYTFTSYWMHWVRQAPGQGLEWMGVIDPSDGYSHYNQKFKGKVTLTVDTSISTAYMELSRLRSDDTAVYYCAGGLAGTLDYWGQGTTVTVSSASTKGPSVFPLAPSSKSTSGGTAALGCLVKDYFPEPVTVSWNSGALTSGVHTFPAVLQSSGLYSLSSVVTVPSSSLGTQTYICNVNHKPSNTKVDKKVEPKSCDKTHTCPPCPAPELLGGPSVFLFPPKPKDTLMISRTPEVTCVVVDVSHEDPEVQFKWYVDGVEVHNAKTKPREEQFNSTFRVVSVLTVLHQDWLNGKEYKCKVSNKALPAPIEKTISKTKGQPREPQVYTLPPSREEMTKNQVSLTCLVKGFYPSDIAVEWESSGQPENNYKTTPPMLDSDGSFFLYSKLTVDKSRWQQGNIFSCSVMHEALHNHYTQKSLSLSPGK
light: DIQMTQSPSSLSASVGDRVTITCRSSQSIVHSSGNTYLQWFQQKPGKAPKLLIYKVSNRFSGVPSRFSGSGSGTDFTLTISSLQPEDFAVYYCFQGSHVPWTFGQGTKLEIKRTVAAPSVFIFPPSDEQLKSGTASVVCLLNNFYPREAKVQWKVDNALQSGNSQESVTEQDSKDSTYSLSSTLTLSKADYEKHKVYACEVTHQGLSSPVTKSFNRGEC
modifications: non-fucosylated glycans on the marked N* residue
notes: Chimeric IgG1/IgG3 Fc, expressed in FUT8- cells; also called humanized …B 1D9 antibody; humanized 1D9 H6L2 …B antibody
B2: in experiment [6], the “IC50 of heregulin induced phospho-AKT formation, BxPC3 cells” value turned out to be 0.0026 µg/mL. In experiment [7], the “Phospho-HER3 ELISA IC50, heregulin induced, BxPC3 cells” value is 0.0026 µg/mL; the “Phospho-HER3 ELISA IC50, heregulin induced, CHL-1 cells” value amounted to 0.0311 µg/mL; the “Phospho-HER3 ELISA IC50, heregulin induced, N87 cells” value is 0.0094 µg/mL; the “Phospho-HER3 ELISA IC50, heregulin induced, SK-BR-3 cells” value is 0.0025 µg/mL. In experiment [8], the “Phospho-AKT ELISA IC50, heregulin induced, BxPC3 cells” value was determined as 0.0108 µg/mL. In addition, in experiment [9], the binding result was “no binding (tested: 10 ug/ml)”. For the same molecule, in experiment [10], the Kd stood at 2.06 nM, the dissociation rate constant (koff) was 0.00233 s⁻¹ and the kon is 1.13e+06 M⁻¹ s⁻¹.

B3: Humanized 15D5 antibody (H4L1) (antibody, human IgG1, V domains shown)
VH: QVQLVQSGAEVKKPGASVKVSCKASGYTFTDYNMNWVRQAPGQGLEWMGGINPNYGTTVYNQKFKGKVTLTVDTSISTAYMELSRLRSDDTAVYYCARMTTIVPFDYWGQGTTVTVSS
VL: DIQMTQSPSSLSASVGDRVTITCRASQDISNYLNWYQQKPGKAPKLLIYYTSTLHSGVPSRFSGSGSGTDYTFTISSLQPEDIATYYCQQGYTLPWTFGGGTKVEIKR
notes: Human IgG1; also called h15D5
The molecule B3 came in with a Kd in experiment [1] of 3.5 nM. This molecule displayed a Kd in experiment [2] of 0.074 nM. In [5], binding was characterised by a dissociation constant (Kd) of 2.62 nM, the koff turned out to be 0.000196 s⁻¹ and the on-rate constant (kon) amounted to 74900 M⁻¹ s⁻¹.

B4: Humanized 1D9 Fc disabled antibody (antibody, V domains shown)
VH: QVQLVQSGAEVKKPGASVKVSCKASGYTFTSYWMHWVRQAPGQGLEWMGVIDPSDGYSHYNQKFKGKVTLTVDTSISTAYMELSRLRSDDTAVYYCAGGLAGTLDYWGQGTTVTVSS
VL: DIQMTQSPSSLSASVGDRVTITCRSSQSIVHSSGNTYLQWFQQKPGKAPKLLIYKVSNRFSGVPSRFSGSGSGTDFTLTISSLQPEDFAVYYCFQGSHVPWTFGQGTKLEIKR
notes: Humanized VH fused to a modified Fc domain incapable of mediating CDC/ADCC; also called humanized 1D9 H6L2 Fc disabled antibody
As to B4, in experiment [7], the “Phospho-HER3 ELISA IC50, heregulin induced, BxPC3 cells” value turned out to be 0.0107 µg/mL; the “Phospho-HER3 ELISA IC50, heregulin induced, CHL-1 cells” value turned out to be 0.0399 µg/mL; the “Phospho-HER3 ELISA IC50, heregulin induced, N87 cells” value was determined as 0.0297 µg/mL; the “Phospho-HER3 ELISA IC50, heregulin induced, SK-BR-3 cells” value was 0.0044 µg/mL. In addition, the “Phospho-AKT ELISA IC50, heregulin induced, BxPC3 cells” value in experiment [8] turned out to be 0.0316 µg/mL. In addition, in experiment [10], the Kd worked out at 4.49 nM, the koff is 0.00122 s⁻¹ and the kon is 271000 M⁻¹ s⁻¹. In experiment [11], this molecule came in with a Kd of 4.49 nM, a koff of 0.00122 s⁻¹ and an association rate constant (kon) of 271000 M⁻¹ s⁻¹. In [12], this molecule came in with a Kd of 3.37 nM, a koff of 0.0011 s⁻¹ and a kon of 326000 M⁻¹ s⁻¹. In addition, in experiment [13], the dissociation constant Kd amounted to 1.73 nM, the off-rate (koff) was 0.00189 s⁻¹ and the kon stood at 1.09e+06 M⁻¹ s⁻¹.
